Source: PMC6661505

Experiments:
Assay in all cases: bead flow cytometry
human FGFR3c-Fc = human FGFR3c-Fc (human, UniProt P22607 23-375)
mouse FGFR3b-Fc = mouse FGFR3b-Fc (mouse, UniProt Q61851-2 21-371)
human FGFR3b-Fc = human FGFR3b-Fc (human, UniProt P22607-2 23-377)
mouse FGFR3c-Fc = mouse FGFR3c-Fc (mouse, UniProt Q61851 21-369)
human FGFR1c-His = human FGFR1c-His (human, UniProt P11362 22-376)
mouse FGFR2c-Fc = mouse FGFR2c-Fc (mouse, UniProt P21803 22-377)
human FGFR2c-His = human FGFR2c-His (human, UniProt P21802 22-377)
mouse FGFR1c-Fc = mouse FGFR1c-Fc (mouse, UniProt P16092 22-376)
Chain of mouse FGFR1c-Fc (P16092 22-376): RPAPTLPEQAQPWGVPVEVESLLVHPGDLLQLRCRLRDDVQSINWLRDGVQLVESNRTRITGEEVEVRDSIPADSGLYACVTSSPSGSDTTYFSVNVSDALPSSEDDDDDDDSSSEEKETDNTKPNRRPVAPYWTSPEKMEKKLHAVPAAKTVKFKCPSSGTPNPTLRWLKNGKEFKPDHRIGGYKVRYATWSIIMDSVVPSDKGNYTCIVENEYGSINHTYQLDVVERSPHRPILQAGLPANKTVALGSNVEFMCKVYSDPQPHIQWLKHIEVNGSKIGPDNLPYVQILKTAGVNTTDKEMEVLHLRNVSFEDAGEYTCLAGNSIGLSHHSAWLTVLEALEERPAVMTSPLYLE

Chain of human FGFR1c-His (P11362 22-376): as the sequence (P16092 22-376) above, with A3S, V15A, L22F, V53A, R68Q, I71V, R128M counted along it
Chain of human FGFR2c-His (P21802 22-377): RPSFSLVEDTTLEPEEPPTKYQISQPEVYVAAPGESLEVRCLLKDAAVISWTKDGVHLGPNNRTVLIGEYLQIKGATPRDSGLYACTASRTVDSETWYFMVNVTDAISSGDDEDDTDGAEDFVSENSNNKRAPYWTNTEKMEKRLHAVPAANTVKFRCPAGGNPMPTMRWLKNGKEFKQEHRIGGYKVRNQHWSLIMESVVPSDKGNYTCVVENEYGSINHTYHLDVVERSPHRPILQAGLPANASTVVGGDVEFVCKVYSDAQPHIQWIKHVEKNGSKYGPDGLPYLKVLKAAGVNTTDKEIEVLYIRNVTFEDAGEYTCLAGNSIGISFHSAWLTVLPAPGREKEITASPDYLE
Chain of mouse FGFR2c-Fc (P21803 22-377): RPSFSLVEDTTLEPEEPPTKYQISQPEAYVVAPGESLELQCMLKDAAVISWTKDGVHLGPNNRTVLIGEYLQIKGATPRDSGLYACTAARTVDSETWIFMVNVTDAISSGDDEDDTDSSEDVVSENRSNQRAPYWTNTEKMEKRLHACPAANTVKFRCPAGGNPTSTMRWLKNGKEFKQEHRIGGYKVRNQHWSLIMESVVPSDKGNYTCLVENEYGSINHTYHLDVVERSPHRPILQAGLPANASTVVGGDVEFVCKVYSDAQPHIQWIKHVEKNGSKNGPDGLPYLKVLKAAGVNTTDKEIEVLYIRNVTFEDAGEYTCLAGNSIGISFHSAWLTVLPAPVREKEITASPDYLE

GCCGAUGGUUUUGUGGCCGUUUGAGGUUCCUACGGC (structured_RNA, 2'-fluoro C and U; 3' inverted dT (not in string)) [iR3]
Kd (human FGFR3c-Fc): 55.5 ± 8.4 nM
Kd (mouse FGFR3b-Fc): ~62 nM
Kd (human FGFR3b-Fc): ~48 nM
Kd (mouse FGFR3c-Fc): 36.6 ± 7.1 nM
binding result (human FGFR1c-His): no binding
binding result (mouse FGFR2c-Fc): no binding
binding result (human FGFR2c-His): no binding
binding result (mouse FGFR1c-Fc): no binding
